Test results from patent US20130171059A1 (AbbVie / Abbott, published 2013).

T1: Recombinant Human SOST (human, UniProt Q9BQB4 24-213)
T1 construct: Biacore used the R&D reagent; also called Human Sclerostin
T1 sequence (looked up): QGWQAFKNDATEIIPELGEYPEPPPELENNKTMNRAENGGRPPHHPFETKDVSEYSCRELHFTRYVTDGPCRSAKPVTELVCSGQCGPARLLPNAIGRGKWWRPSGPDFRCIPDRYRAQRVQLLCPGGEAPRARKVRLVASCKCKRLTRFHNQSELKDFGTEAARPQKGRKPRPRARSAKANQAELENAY

B1: DVD1960 (bispecific antibody, not shown: a dimerising Fc or GST)
heavy: DIVMTQSHKFMSTTVGDRVSITCKASQAVSSAVAWYQQKPGQSPKLLIYWASTRHTGVPDRFTGSGSVTDFTLTIHNLQAEDLALYYCQQHYSTPFTFGSGTKLEIKRTVAAPQVQLQESGPGLVKPSETLSLTCTVSGFSLIGYDLNWIRQPPGKGLEWIGIIWGDGTTDYNSAVKSRVTISKDTSKNQFSLKLSSVTAADTAVYYCARGGYWYATSYYFDYWGQGTLVTVSS
light: QVQLKESGPGLVAPSQSLSITCTVSGFSLTDYGVNWVRQPPGKGLEWLGMIWGDGSTDYDSTLKSRLSISKDNSKSQIFLKMNSLQTDDTARYYCAREWHHGPVAYWGQGTLVTVSAASTKGPDIQMTQSPSSLSASVGDRVTITCRASQSISNNLNWYQQKPGKAPKLLIYYTSRFHSGVPSRFSGSGSGTDFTFTISSLQPEDIATYYCQQEHTLPYTFGQGTKLEIKR
B2: DVD1961 (bispecific antibody)
heavy: DIQMTQSPSSLSASVGDRVTITCRASQSISNNLNWYQQKPGKAPKLLIYYTSRFHSGVPSRFSGSGSGTDFTFTISSLQPEDIATYYCQQEHTLPYTFGQGTKLEIKRTVAAPQVQLKESGPGLVAPSQSLSITCTVSGFSLTDYGVNWVRQPPGKGLEWLGMIWGDGSTDYDSTLKSRLSISKDNSKSQIFLKMNSLQTDDTARYYCAREWHHGPVAYWGQGTLVTVSA
light: QVQLQESGPGLVKPSETLSLTCTVSGFSLIGYDLNWIRQPPGKGLEWIGIIWGDGTTDYNSAVKSRVTISKDTSKNQFSLKLSSVTAADTAVYYCARGGYWYATSYYFDYWGQGTLVTVSSASTKGPDIVMTQSHKFMSTTVGDRVSITCKASQAVSSAVAWYQQKPGQSPKLLIYWASTRHTGVPDRFTGSGSVTDFTLTIHNLQAEDLALYYCQQHYSTPFTFGSGTKLEIK
notes: VH/VL crossover DVD-Ig; also called DVD1961H + DVD1961L
B3: DVD1984 (bispecific antibody)
DVD-H: DIQMTQSPSSLSASVGDRVTITCRASQGIRIDLGWYQQKPGKAPKRLIYAASTLQSGVPSRFSGSGSGTEFIFTISSLQPEDFASYYCLQHKSYPLTFGGGTKVEIKRTVAAPQVQLQESGPGLVKPSETLSLTCTVSGFSLIGYDLNWIRQPPGKGLEWIGIIWGDGTTDYNSAVKSRVTISKDTSKNQFSLKLSSVTAADTAVYYCARGGYWYATSYYFDYWGQGTLVTVSS
DVD-L: QVQLVESGGGVVQPGRSLRLSCAASGFTFSSYDMHWVRQAPGKGLEWVAVIWSDGSIKYYADSVKGRFTISRDNSKNTLYLQMNSLRAEDTAVYYCAREVESAMGGFYYNGMDVWGQGTTVTVSSASTKGPDIQMTQSPSSLSASVGDRVTITCRASQSISNNLNWYQQKPGKAPKLLIYYTSRFHSGVPSRFSGSGSGTDFTFTISSLQPEDIATYYCQQEHTLPYTFGQGTKLEIK
notes: VH/VL crossover DVD-Ig; also called DVD1984H + DVD1984L; copies: 2 + 2
B4: DVD1991 (bispecific antibody)
DVD-H: DVQMIQSPSSLSASLGDIVTMTCQASQGTSINLNWFQQKPGKAPKLLIYGSSNLEDGVPSRFSGSRYGTDFTLTISSLEDEDLATYFCLQHSYLPYTFGGGTKLEIKRTVAAPEVQLVESGGGLIQPGGSLRLSCAASGFTVSRNYMSWVRQAPGKGLEWVSVIYSGDRTYYADSVKGRFTISRDNSKNTLYLQMNSLRAEDTAVYYCARGEGGFDYWGQGTLVTVSS
DVD-L: EVQLQQSGPELVTPGASVKISCKASGYTFTDHYMSWVKQSHGKSLEWIGDINPYSGETTYNQKFKGTATLTVDKSSSIAYMEIRGLTSEDSAVYYCARDDYDASPFAYWGQGTLVTVSAASTKGPEIVMTQSPATLSVSPGERATLSCRASQSVSSNLAWYQQKPGQAPRLLIHGASIRATGLPARFSGSGSGTEFTLTISSLQSEDFAVYYCQQYNYWWTFGQGTKVEIK
notes: VH/VL crossover DVD-Ig; also called DVD1991H + DVD1991L; copies: 2 + 2
B5: AB020 (antibody, V domains shown)
VH: QVQLQESGPGLVKPSETLSLTCTVSGFSLIGYDLNWIRQPPGKGLEWIGIIWGDGTTDYNSAVKSRVTISKDTSKNQFSLKLSSVTAADTAVYYCARGGYWYATSYYFDYWGQGTLVTVSS
VL: DIQMTQSPSSLSASVGDRVTITCRASQSISNNLNWYQQKPGKAPKLLIYYTSRFHSGVPSRFSGSGSGTDFTFTISSLQPEDIATYYCQQEHTLPYTFGQGTKLEIKR
notes: Parent antibody; also called NGF parent antibody

How the values were obtained:
Recombinant Human β-NGF [1] = molecular target: T2, Recombinant Human β-NGF (human, UniProt P01138 122-239, limits assumed); experiment: cell-based or functional assay
T2 sequence (P01138 122-239 limits assumed): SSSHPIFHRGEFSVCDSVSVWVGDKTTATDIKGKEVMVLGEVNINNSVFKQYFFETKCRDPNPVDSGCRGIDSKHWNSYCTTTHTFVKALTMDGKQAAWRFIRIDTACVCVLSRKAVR

[2] = molecular target: T3, Recombinant Human TNF-α/TNFSF1A (human, UniProt P01375 77-233); experiment: cell-based or functional assay
T3 sequence (P01375 77-233 limits assumed): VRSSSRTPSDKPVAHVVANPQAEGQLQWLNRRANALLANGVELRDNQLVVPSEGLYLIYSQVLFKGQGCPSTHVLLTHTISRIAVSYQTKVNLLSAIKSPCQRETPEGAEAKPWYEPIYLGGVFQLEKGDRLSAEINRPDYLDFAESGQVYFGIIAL

Recombinant Human β-NGF [3] = molecular target: T2, Recombinant Human β-NGF; experiment: SPR (Biacore)
Protocol: (§1) The BIACORE assay (Biacore, Inc, Piscataway, N.J.) determined the affinity of antibodies or DVD-Ig proteins with kinetic measurements of on-rate and off-rate constants. Binding of antibodies or DVD-Ig proteins to a target antigen (for example, a purified recombinant target antigen) was determined by surface plasmon resonance-based measurements with a Biacore® 1000 or 3000 instrument (Biacore® AB, Uppsala, Sweden) using running HBS-EP (10 mM HEPES [pH 7.4], 150 mM NaCl, 3 mM EDTA, and 0.005% surfactant P20) at 25° C. All chemicals were obtained from Biacore® AB (Uppsala, Sweden) or otherwise from a different source as described in the text. For example, approximately 5000 RU of goat anti-mouse IgG, (Fcγ), fragment specific polyclonal antibody (Pierce Biotechnology Inc, Rockford, Ill.) diluted in 10 mM sodium acetate (pH 4.5) was directly immobilized across a CM5 research grade biosensor chip using a standard amine coupling kit according to manufacturer's instructions and procedures at 25 μg/ml. Unreacted moieties on the biosensor surface were blocked with ethanolamine. Modified carboxymethyl dextran surface in flowcell 2 and 4 was used as a reaction surface. Unmodified carboxymethyl dextran without goat anti-mouse IgG in flow cell 1 and 3 was used as the reference surface. For kinetic analysis, rate equations derived from the 1:1 Langmuir binding model were fitted simultaneously to association and dissociation phases of all eight injections (using global fit analysis) with the use of Biaevaluation 4.0.1 software. Purified antibodies or DVD-Ig proteins were diluted in HEPES-buffered saline for capture across goat anti-mouse IgG specific reaction surfaces. Antibodies or DVD-Ig proteins to be captured as a ligand (25 μg/ml) were injected over reaction matrices at a flow rate of 5 μl/minute. The association and dissociation rate constants, kₒₙ (M⁻¹s⁻¹) and koff (s⁻¹) were determined under a continuous flow rate of 25 μl/minute. Rate constants were derived by making kinetic binding measurements at different antigen concentrations ranging from 10-200 nM. The equilibrium dissociation constant (M) of the reaction between antibodies or DVD-Ig proteins and the target antigen was then calculated from the kinetic rate constants by the following formula: KD=koff/kₒₙ. Binding was recorded as a function of time and kinetic rate constants were calculated.

[4] = molecular target: T3, Recombinant Human TNF-α/TNFSF1A; experiment: SPR (Biacore)
Protocol: as §1

Recombinant Human SOST [5] = molecular target: T1, Recombinant Human SOST; experiment: SPR (Biacore)
Protocol: as §1

Recombinant Human SOST [6] = molecular target: T1, Recombinant Human SOST; experiment: cell-based or functional assay
Recombinant Human β-NGF [7] = molecular target: T2, Recombinant Human β-NGF; experiment: SPR (Biacore); antibody captured on anti-IgG Fc chip, antigen 10-200 nM in flow, 25 C, HBS-EP pH 7.4; koff 6.80E-06 is near the assay floor of 10^-6 s^-1
Protocol: The BIACORE assay (Biacore, Inc, Piscataway, N.J.) determined the affinity of antibodies or DVD-Ig proteins with kinetic measurements of on-rate and off-rate constants. Binding of antibodies or DVD-Ig proteins to a target antigen (for example, a purified recombinant target antigen) was determined by surface plasmon resonance-based measurements with a Biacore® 1000 or 3000 instrument (Biacore® AB, Uppsala, Sweden) using running HBS-EP (10 mM HEPES [pH 7.4], 150 mM NaCl, 3 mM EDTA, and 0.005% surfactant P20) at 25° C. All chemicals were obtained from Biacore® AB (Uppsala, Sweden) or otherwise from a different source as described in the text. […] The association and dissociation rate constants, kₒₙ (M⁻¹s⁻¹) and koff (s⁻¹) were determined under a continuous flow rate of 25 μl/minute. […] The equilibrium dissociation constant (M) of the reaction between antibodies or DVD-Ig proteins and the target antigen was then calculated from the kinetic rate constants by the following formula: KD=koff/kₒₙ. Binding was recorded as a function of time and kinetic rate constants were calculated.

Binder	C-Terminal VD NGF Neutralization Assay IC50 (TF-1 cell proliferation) (Recombinant Human β-NGF [1]) [nM]	N-Terminal VD TNFa Neutralization Assay IC50 (L929 cells) [2] [nM]	Kd (Recombinant Human β-NGF [3]) [nM]	koff (Recombinant Human β-NGF [3]) [s⁻¹]	kon (Recombinant Human β-NGF [3]) [M⁻¹ s⁻¹]	Kd [4] [nM]	koff [4] [s⁻¹]	kon [4] [M⁻¹ s⁻¹]	N-Terminal VD NGF Neutralization Assay IC50 (TF-1 cell proliferation) (Recombinant Human β-NGF [1]) [nM]	C-Terminal VD TNFα Neutralization Assay IC50 (L929 cells) [2] [nM]	Kd (Recombinant Human SOST [5]) [nM]	koff (Recombinant Human SOST [5]) [s⁻¹]	kon (Recombinant Human SOST [5]) [M⁻¹ s⁻¹]	N-Terminal VD SOST Neutralization Assay IC50 (Wnt-1/luciferase HEK clone #14) (Recombinant Human SOST [6]) [nM]	Kd (Recombinant Human β-NGF [7]) [nM]	NGF Neutralization Assay IC50 (TF-1 cell proliferation) (Recombinant Human β-NGF [1]) [nM]
B1	3.12	0.086														
B2			< 0.00031	< 1e-06	3.2e+06	0.58	9.9e-05	170000	0.132	4.02						
B3	0.593	0.017	0.096	4.3e-05	450000	0.015	3.7e-05	2.5e+06								
B4						0.66	7.1e-05	110000		0.401	0.017	0.00025	1.5e+07	36		
B5				6.8e-06	2.5e+06										0.0027	0.008
